The supplement of paper PMC10126150
± gives the standard deviation of the averaged measurements.

test system: ATP; experiment: switch fluorescence ratio, 500 uM ATP over buffer (Cy3 cluster intensity, sum of 5 cycles each) (fold (ratio)); higher = stronger signal-on switching upon ATP binding; sequences stand for … in TCGTCGGCAGCGTCAGATGTGTATAAGAGACAGTTTTTTTTTTTTTTTTTTTTTTTTT…TC; conditions: aptamer strand: ATP DNA aptamer (quencher-CACCTGGGGGAGTATTGCGGAGGAAGG + anchor), 100 nM annealed; ATP concentration: 500 uM
Outline: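 Five buffer/ATP imaging cycles were run on Cy3-labelled switching-strand clusters on a modified Illumina MiSeq flow-cell, with NaOH stripping and re-annealing between cycles. In each cycle, clusters annealed to 100 nM quencher-labelled ATP aptamer were imaged in selection buffer, then after 15 min with 500 uM ATP at 22 °C. Per cluster, the fluorescence ratio is summed target-cycle over summed buffer-cycle Cy3 intensity, averaged per switch-domain sequence. Only clusters within 100-1000 RFU were kept.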
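Also: ATP exposure 15 min at 22 °C before imaging.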

In order of falling switch fluorescence ratio:
1. TGCGCCTTAC  3.37 ± 0.38
2. TTGTAATTGC  1.29 ± 0.34
3. TTTTGGATAT  1.28 ± 0.42
4. TACGTAATCT  1.27 ± 0.014
5. CTTCGTGCAT  1.23 ± 0.069
6. TGCTTAGACT  1.18 ± 0.27
7. AGTAAGATTT  1.16 ± 0.15
8. TACATTTTAC  1.151 ± 0.0082
9. CGCAAAATTT  1.11 ± 0.11
10. AACGAGTGTC  1.09 ± 0.11
11. AAAAAACGCT  1.08 ± 0.061
12. CGAACCGTCA  1.08 ± 0.028
13. ACCGTTTTTA  1.08 ± 0.097
14. AATGCTGGTG  1.075 ± 0.01
15. GCGGGGACGG  1.07 ± 0.034
16. AAGCTTCGGG  1.06 ± 0.029
17. GACTGTAAGC  1.057 ± 0.0074
18. TTGGGGAATA  1.05 ± 0.035
19. GGAGTTTGAC  1.05 ± 0.068
20. AACGGGGCTC  1.04 ± 0.066
21. GAGGGGGCTC  1.04 ± 0.028
22. AGGAAGAAAG  1.042 ± 0.0089
23. GCGTGTAGAT  1.04 ± 0.036
24. TAGCGGGGCT  1.04 ± 0.043
25. TTTTCAATGT  1.04 ± 0.048
26. CTCGGCGTCG  1.03 ± 0.019
27. ATGTGGGTTG  1.03 ± 0.022
28. TTGAAGTCCG  1.03 ± 0.026
29. AAACGCCTTA  1.03 ± 0.015
30. ACAGGTTGGA  1.03 ± 0.023
31. CGGCTTGCTG  1.03 ± 0.018
32. CACGACATTG  1.02 ± 0.018
33. TTTAGTCTCA  1.017 ± 0.0089
34. TGCTGTAACG  1.02 ± 0.017
35. TTTGATTGGA  1.02 ± 0.011
36. GACGGGGTTA  1.02 ± 0.018
37. CAGGTACGGG  1.02 ± 0.025
38. TATAGCGGGG  1.02 ± 0.015
39. ACTGTTAGTG  1.02 ± 0.034
40. CTGAGTGCGG  1.02 ± 0.023
41. CCTGGAGAGT  1.02 ± 0.059
42. TTTTGCTGTG  1.01 ± 0.025
43. GCGCGCTAGT  1.007 ± 0.0024
44. CGTGGTTAAG  1.01 ± 0.038
45. GGGCATAGG  1.008 ± 0.0014
46. GGTTTCGGGA  1.01 ± 0.021
47. TATCTGTTTC  1.01 ± 0.016
48. GGTGGTGGCG  1.01 ± 0.059
49. GAATTGGGGG  1.01 ± 0.03
50. AACAGTTGAA  1.0083 ± 0.00099
51. ACGCTTTAGT  1.01 ± 0.036
52. GCAGGGGGGT  1.01 ± 0.034
53. AGGGTTAAGT  1.002 ± 0.0061
54. GCAAATGAGT  1.003 ± 0.0082
55. ATCCAAGATT  1 ± 0.019
56. CAGGATCTAG  1 ± 0.024
57. TTTAAAGATC  1 ± 0.021
58. GGAGTACGGG  0.999 ± 0.032
59. GGAGTATGAG  0.999 ± 0.021
60. TTATTTTATT  0.998 ± 0.021
61. GATATATAGA  0.998 ± 0.032
62. AATGTCGAAA  0.998 ± 0.018
63. CGGGGGCGAA  0.996 ± 0.05
64. AAATGGGAGG  0.996 ± 0.032
65. TTATCGATTT  0.995 ± 0.028
66. TGATGGATAG  0.995 ± 0.047
67. GGGTGTATCG  0.9943 ± 0.0036
68. GCTTGTTAAA  0.994 ± 0.037
69. TATTCACATT  0.994 ± 0.024
70. GAATATTTTG  0.994 ± 0.015
71. TGGGTTTTGC  0.994 ± 0.044
72. GTAGGAGGAG  0.991 ± 0.032
73. TTATCCCGAA  0.991 ± 0.0085
74. GGGGTGGTAT  0.99 ± 0.044
75. GGGTCGGGGT  0.99 ± 0.029
76. CCTTTCTATT  0.99 ± 0.018
77. TTTATTGTT  0.99 ± 0.018
78. TGTTGTTTCG  0.989 ± 0.025
79. ATGCAACGTC  0.989 ± 0.049
80. CGTCGTAGTG  0.989 ± 0.016
81. ACTAGGATTC  0.986 ± 0.0028
82. AAGGATAGAT  0.985 ± 0.025
83. TAAAGGGTTA  0.985 ± 0.014
84. CGTTAATTTT  0.983 ± 0.026
85. TCCATTTATC  0.982 ± 0.04
86. TTCTATACCG  0.982 ± 0.036
87. GGTGTTGCGG  0.98 ± 0.038
88. GCTCGGGGTC  0.978 ± 0.062
89. TCTGGGGGAG  0.977 ± 0.029
90. AATTAAAAAG  0.975 ± 0.023
91. TAATTGGGCT  0.975 ± 0.016
92. ATTGCTTATT  0.974 ± 0.018
93. TAAGGTTATG  0.973 ± 0.017
94. ATCAAGGGGA  0.972 ± 0.028
95. GGCTCTGAGG  0.972 ± 0.02
96. TAGATGGGGC  0.967 ± 0.029
97. CGATGGCTA  0.965 ± 0.041
98. ATAGGCGGAG  0.965 ± 0.02
99. TGGGTTCGGG  0.9503 ± 0.0091
100. TTATAGTATC  0.948 ± 0.02
